B1: FAM107A (parent)
chain: LQRVLEHRRRNQLIKKKKEELEAK
B2: SERPINB5 (parent)
chain: FPESETKECPFRVNKVCGAACSSK

Variants of: B1
Experiment: protein stability index of a GFP-peptide fusion (GPS, HEK-293T) (PSI 1-6); higher = more stable
Conditions: c terminus: a fixed tail appended
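Further: lentivirally expressed fusions sorted by FACS into six bins by GFP to DsRed ratio, PSI derived from sequencing read proportions per bin multiplied by bin number.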

Protein stability index of substitutions, site by site:
E19: K 2.97, F 2.22, I 3.12, P 3.41, T 3.19, Y 3.23, L 1.86, H 2.87, R 2.56, M 3.19, Q 2.56, C 2.46, S 3.13, D 4.2, V 2.7, N 2.98
E20: G 2.42, I 3.35, V 3.58, L 3.03, Y 2.94, H 2.83, F 2.52, P 3.74, K 3.34, A 3.12, S 3.99, N 3.35, Q 2.12, M 3.5, D 3.71, T 3.45, W 2.29
Q12: V 3.45, H 3.5, E 4.11, L 2.2, D 3.74, N 3.1, Y 2.8, W 1.5, R 4.07, G 2.85, S 3.11, A 4.05, M 3.45, K 4, I 3.74, P 4.12, F 2.66, T 3.66
K17: M 3.16, I 2.58, G 4.27, T 4.38, Q 3.8, F 3.73, D 4.78, E 4.31, L 3.5, V 3.25, H 3.52, A 3.44, C 2.8, Y 3.37, W 3.74
K16: M 3.09, T 3.85, Q 3.82, W 3.58, S 4, Y 2.41, E 3.94, R 3.04, G 4.52, I 3.28, C 3.26, H 3, A 4.15, N 4.07, D 4.44
K15: A 4.16, I 3.24, T 3.87, N 4, C 3.52, G 4.49, L 3.84, D 3.61, M 3.98, Y 3.51, R 3.34, E 4.74, P 4.18, Q 3.7, S 3.86, H 4.23
E22: W 2.75, H 2.33, I 2.58, Q 3.59, S 2.96, F 2.59, M 2.83, G 3.33, Y 3.26, L 3.08, C 2.54, R 2.26, P 2.77, D 2.62, A 3.44, V 2.88, K 4.21, T 3.51, N 2.82
K18: S 3.62, F 4.52, V 3.21, Y 3.11, A 4.54, D 4.4, M 3.57, E 3.89, N 3.41, W 3.1, I 2.74, Q 3.04, T 3.93, L 2.81, H 3.67, C 3.37, P 4.37
R10: T 4.57, P 4.23, W 3.94, M 2.85, N 3.55, S 3.95, Y 4.04, V 3.95
L21: N 4.16, D 4.01, A 3.88, S 3.92, G 3.63, M 3.32, C 3.3, Y 2.46, V 3.36, H 3.77, Q 3.48, F 2.71, I 2.78, T 3.74, R 4.14, P 3.46, W 3.18, K 2.99
N11: I 2.97, A 2.24, V 3.25, Y 2.97, C 2.83, E 4.16, G 3.57, F 2.72, Q 3.09, L 2.65, D 3.56, T 3.38, W 1.93, K 3.62, M 3.4, P 3.24, H 3.23, S 3.6
A23: N 3.56, C 2.98, H 2.76, V 3.03, E 4.14, K 2.86, S 3.63, I 2.75, M 3.39, Y 3.48, D 3.75, L 3.99, G 3.7, R 3.48, T 3.11, Q 3.87, W 4.26
I14: R 3.66, E 4.18, C 3.42, D 4.39, P 3.31, Y 3.28, H 3.44, Q 3.62, L 3.24, N 3.74, T 3.71, F 4.1, V 4.25, S 3.92, M 4.54
L13: K 3.43, V 3.08, E 4.54, N 3.6, M 3.83, G 4.31, D 3.29, I 3.76, S 3.72, A 3.51, F 3.83, Y 3.37, Q 3.73, C 3.3, T 3.32, H 4.18, P 4.07
K24: V 3.91, D 3.89, P 3.44, Q 3.9, G 3.63, S 3.97, M 3.3, L 3.04, C 4.22, A 3.62, H 3.33, I 3.57, F 3.75, N 3.77, T 3.97, Y 2.62, W 2.88, R 2.61, E 4.35

Variants of: B2
Experiment: as above
Conditions: c terminus: a fixed tail appended

Protein stability index of substitutions, site by site:
E8: K 3.04, H 2.14, A 2.25, Y 1.93, T 2.6, Q 1.98, M 1.86, R 1.82, S 2.14
A20: D 2.69, G 3.22, C 2.17, E 2.84, T 3.22, R 2.53
T6: N 2.2, Q 2.95, C 2.38
R12: H 3.83, L 2.68
C9: H 1.83, M 3.81
S22: F 1.66, T 2.39
F1: M 4.85, C 4.63, I 4.67
E3: R 1.71, S 1.47
V16: E 3.12, W 2.49, F 2.57
K7: N 3.05, A 2.43, E 2.78, W 1.34
E5: H 1.4, T 2.11, S 1.97
F11: G 2.87, Y 2.99, H 5.17, L 4.31, C 3.71, A 4.43, I 4.74
C17: R 2.48, Q 2.4, T 2.68, H 2.45
C21: W 1.38, H 2.44, Q 2.22
S23: W 1.93, L 2.4, Q 2.35, F 2.23, A 2.41
P10: M 3.41, Q 3.58, K 3.75
K15: Q 2.52, D 3.01, V 2.1
A19: F 2.02, Y 2.29, E 2.5
P2: I 2.07, G 3.59, A 2.02, C 2.31
N14: F 2.15
V13: P 3.02, Y 2.03, C 3.09
G18: T 2.35, E 2.6, S 3.42, H 2.59, C 2.54, N 2.59, Y 2.09
K24: D 2.94, V 2.17, I 1.88
S4: K 3.78, Y 2.9, L 2.35, H 2.62

Source: the supplement of paper PMC10567573
